As usually defined, the Kd is a measure of binding affinity in units of concentration. Lower therefore signals a tighter complex.

Binding signal (fold lower affinity than PabrB), binding and Kd data for six substances are collected here from PMC3485338.

In data set [1] the test system is Spo0A-DBD-6xHis (Clostridium difficile 630Δerm). Kind of data set: EMSA. The conditions noted are these: EMSA: 10 mM Tris-HCl pH 7.6, 1 mM EDTA, 50 mM NaCl, 1 mM DTT, 5% glycerol, 200 ug/mL BSA, 200 cpm/uL 32P-DNA, 20 min at 30 C; 8% native PAGE in 1x TAE. A general note: A gel shift assay detects complexes by their altered migration in electrophoresis.
For data set [2], the target named is T1, Spo0A-DBD-6xHis (Clostridium difficile 630Δerm) (UniProt I6ZTX1).
T1 sequence: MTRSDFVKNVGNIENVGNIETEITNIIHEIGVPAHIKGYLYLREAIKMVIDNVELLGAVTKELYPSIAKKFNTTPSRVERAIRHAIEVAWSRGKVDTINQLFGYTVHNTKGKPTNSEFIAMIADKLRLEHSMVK
Kind of data set: EMSA. The conditions noted are these: EMSA: 10 mM Tris-HCl pH 7.6, 1 mM EDTA, 50 mM NaCl, 1 mM DTT, 5% glycerol, 200 ug/mL BSA, 200 cpm/uL 32P-DNA, 20 min at 30 C; 8% native PAGE in 1x TAE.

As to PabrB G5A, the binding signal (fold lower affinity than PabrB) in data set [1] came out at 10.

As for “CAATTCTGTATTCCATTTATGTATCCCTCCATAACGGTTGCTTCAATAGATCATAATTCGCCAATGACACAAAAAATCCTTTTTATTTTTCGATCTTGGCAGATTTTAATTTTAATTCAAGATATACGCGGGAATCCTTTGAATATTTGTATTTTGGATTTGTCCTGCCGTACTCCTTTGATGTATAAGAGACATCATAATGCTGTTCAAATGATCTAATGAGCTGTTCAATTTCTTCTTGTTTTCCAGCTAGCCTTACCTGTGCCACTTCGTATCCTCCGCTTTCA (double strand) [PcitG]”, the binding result in data set [2] was “no binding”.

Take “AGGATTTTTAGTAGGATAATAGCTTTATTAAATATTTATAAAATGCTGTTATTTCGGTAGTTTCCAAGACATTACTGACTATAAGAACTAATTCTTACAATCAATAGTAAACAAAATGATTGACGATTATTGGAAACCTTGTTATGCTATGAAGGTAAGGATTTTGTCGAATAATGACGAAGAAAAATATAATTTAAACAAATAAGTATCTCTTGGGAG (double strand) [PabrB]”: the Kd in data set [2] is under 50 nM.

In the case of PabrB G2A, in data set [1], the binding signal (fold lower affinity than PabrB) was 10.

Substance PabrB C4A returned a binding signal (fold lower affinity than PabrB) in data set [1] of 10.

PabrB yielded a Kd in data set [1] of under 50 nM.
